Earlier results on one substance are cited in article PMC4987277.

The series addresses C3d C3d (Homo sapiens) (UniProt P01024).

Chain of CR2 (P20023 21-971): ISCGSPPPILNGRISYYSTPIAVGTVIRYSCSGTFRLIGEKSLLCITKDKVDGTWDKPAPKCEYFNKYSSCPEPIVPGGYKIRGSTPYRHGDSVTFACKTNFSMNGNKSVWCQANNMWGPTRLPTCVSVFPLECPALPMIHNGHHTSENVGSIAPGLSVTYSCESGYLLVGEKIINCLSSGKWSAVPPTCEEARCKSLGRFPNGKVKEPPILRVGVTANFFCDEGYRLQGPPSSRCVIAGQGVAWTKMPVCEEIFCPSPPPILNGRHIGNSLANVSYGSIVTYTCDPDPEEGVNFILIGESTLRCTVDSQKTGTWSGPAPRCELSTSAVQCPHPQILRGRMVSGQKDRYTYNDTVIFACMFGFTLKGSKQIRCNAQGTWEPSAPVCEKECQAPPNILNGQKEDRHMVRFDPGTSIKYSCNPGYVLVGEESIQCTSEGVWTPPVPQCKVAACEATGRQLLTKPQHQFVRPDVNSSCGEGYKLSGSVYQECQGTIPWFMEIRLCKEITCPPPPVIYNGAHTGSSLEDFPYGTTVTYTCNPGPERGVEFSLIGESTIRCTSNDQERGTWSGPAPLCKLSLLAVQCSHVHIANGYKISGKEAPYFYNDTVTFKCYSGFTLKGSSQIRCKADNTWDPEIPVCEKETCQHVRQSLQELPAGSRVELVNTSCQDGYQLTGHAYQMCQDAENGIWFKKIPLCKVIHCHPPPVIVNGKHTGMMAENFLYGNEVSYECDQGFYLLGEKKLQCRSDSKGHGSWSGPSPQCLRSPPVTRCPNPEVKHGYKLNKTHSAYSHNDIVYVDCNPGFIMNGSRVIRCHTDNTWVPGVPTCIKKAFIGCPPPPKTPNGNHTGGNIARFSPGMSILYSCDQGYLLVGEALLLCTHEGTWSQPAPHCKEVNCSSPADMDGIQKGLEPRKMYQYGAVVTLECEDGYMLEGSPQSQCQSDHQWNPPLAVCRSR
Chain of C3d C3d (Homo sapiens) (P01024 1002-1303): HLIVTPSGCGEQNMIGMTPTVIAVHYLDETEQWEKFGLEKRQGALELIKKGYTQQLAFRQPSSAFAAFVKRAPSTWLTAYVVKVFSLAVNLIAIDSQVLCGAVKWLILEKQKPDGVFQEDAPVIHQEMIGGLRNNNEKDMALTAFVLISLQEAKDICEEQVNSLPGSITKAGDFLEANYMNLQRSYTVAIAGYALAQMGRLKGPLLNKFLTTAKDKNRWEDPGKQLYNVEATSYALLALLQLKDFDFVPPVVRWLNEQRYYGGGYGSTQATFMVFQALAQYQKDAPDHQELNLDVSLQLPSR

For CR2 (from UniProt P20023), the Kd (commonly a measure of binding affinity in units of concentration) is 500 nM.
